According to the Immune Epitope Database (IEDB):
Values belong to the sequence of their own block, whether it stands above or below them.

How the values were obtained:
[1] = target: HLA-B*83:01; experiment: IEDB peptide-MHC binding, purified MHC/competitive/fluorescence; filed as Kd, often an IC50 or EC50 that approximates it; ≥ and ≤ were set here for values at or beyond the usual limits of such assays
[2] = target: HLA-B*15:42; experiment: as above
[3] = target: HLA-B*45:06; experiment: as above
[4] = target: HLA-B*46:01; experiment: IEDB peptide-MHC binding, purified MHC/direct/fluorescence; filed as Kd, often an IC50 or EC50 that approximates it; ≥ and ≤ were set here for values at or beyond the usual limits of such assays; conditions: source organism: Yellow fever virus 17D
[5] = target: HLA-B*15:01; experiment: as above; conditions: source organism: Yellow fever virus 17D
[6] = target: HLA-A*02:01; experiment: IEDB peptide-MHC binding, purified MHC/competitive/radioactivity; filed as Kd, often an IC50 or EC50 that approximates it; ≥ and ≤ were set here for values at or beyond the usual limits of such assays
[7] = target: HLA-A*02:17; experiment: as above
[8] = target: HLA-A*02:03; experiment: as above
[9] = target: HLA-A*03:01; experiment: IEDB peptide-MHC binding, purified MHC/competitive/fluorescence; ≥ and ≤ were set here for values at or beyond the usual limits of such assays
[10] = target: HLA-A*11:01; experiment: as above
[11] = target: HLA-B*39:01; experiment: IEDB peptide-MHC binding, purified MHC/competitive/fluorescence; filed as Kd, often an IC50 or EC50 that approximates it; ≥ and ≤ were set here for values at or beyond the usual limits of such assays
[12] = target: HLA-B*35:01; experiment: as above
[13] = target: HLA-B*51:01; experiment: as above; conditions: source organism: Yersinia pestis Nepal516
[14] = target: HLA-B*07:02; experiment: as above
[15] = target: HLA-A*02:01; experiment: IEDB peptide-MHC binding, purified MHC/competitive/fluorescence; ≥ and ≤ were set here for values at or beyond the usual limits of such assays; conditions: source organism: Zaire ebolavirus
[16] = target: HLA-B*15:01; experiment: as above; conditions: source organism: Zaire ebolavirus
[17] = target: HLA-A*24:02; experiment: as above; conditions: source organism: Zaire ebolavirus
[18] = target: HLA-A*24:02; experiment: IEDB peptide-MHC binding, purified MHC/competitive/fluorescence; filed as Kd, often an IC50 or EC50 that approximates it; ≥ and ≤ were set here for values at or beyond the usual limits of such assays
[19] = target: HLA-A*02:03; experiment: as above; conditions: source organism: Giardia intestinalis
[20] = target: HLA-B*27:05; experiment: IEDB peptide-MHC binding, purified MHC/direct/fluorescence; filed as Kd, often an IC50 or EC50 that approximates it; ≥ and ≤ were set here for values at or beyond the usual limits of such assays; conditions: source organism: Giardia intestinalis
[21] = target: HLA-A*31:01; experiment: as above; conditions: source organism: Giardia intestinalis
[22] = target: HLA-B*40:01; experiment: as above; conditions: source organism: Giardia intestinalis
[23] = target: HLA-A*02:01; experiment: as above; conditions: source organism: Giardia intestinalis
[24] = target: HLA-B*58:01; experiment: as above; conditions: source organism: Giardia intestinalis
[25] = target: HLA-B*48:01; experiment: as above; conditions: source organism: Giardia intestinalis
[26] = target: HLA-B*57:01; experiment: as above; conditions: source organism: Giardia intestinalis
[27] = target: HLA-A*26:01; experiment: as above; conditions: source organism: Giardia lamblia ATCC 50803
[28] = target: HLA-A*69:01; experiment: as above; conditions: source organism: Giardia intestinalis
[29] = target: HLA-B*07:02; experiment: as above; conditions: source organism: Giardia intestinalis
[30] = target: HLA-A*11:01; experiment: as above; conditions: source organism: Giardia intestinalis
[31] = target: HLA-A*68:02; experiment: as above; conditions: source organism: Giardia intestinalis
[32] = target: HLA-B*18:01; experiment: as above; conditions: source organism: Giardia intestinalis
[33] = target: HLA-A*01:01; experiment: as above; conditions: source organism: Giardia intestinalis
[34] = target: HLA-A*31:01; experiment: IEDB peptide-MHC binding, purified MHC/competitive/fluorescence; filed as Kd, often an IC50 or EC50 that approximates it; ≥ and ≤ were set here for values at or beyond the usual limits of such assays; conditions: source organism: Salmonella enterica subsp. enterica serovar Typhimurium str. LT2
[35] = target: HLA-A*30:01; experiment: IEDB peptide-MHC binding, purified MHC/competitive/radioactivity; filed as Kd, often an IC50 or EC50 that approximates it; ≥ and ≤ were set here for values at or beyond the usual limits of such assays; conditions: source organism: Vaccinia virus WR
[36] = target: HLA-B*15:03; experiment: as above; conditions: source organism: Vaccinia virus WR
[37] = target: HLA-A*32:01; experiment: as above; conditions: source organism: Vaccinia virus WR
[38] = target: HLA-B*15:01; experiment: as above; conditions: source organism: Vaccinia virus WR
[39] = target: HLA-B*08:01; experiment: as above; conditions: source organism: Vaccinia virus WR
[40] = target: HLA-B*44:03; experiment: as above; conditions: source organism: Dengue virus 1 Brazil/97-11/1997
[41] = target: HLA-B*44:02; experiment: IEDB peptide-MHC binding, purified MHC/direct/fluorescence; filed as Kd, often an IC50 or EC50 that approximates it; ≥ and ≤ were set here for values at or beyond the usual limits of such assays; conditions: source organism: Dengue virus 1 Singapore/S275/1990
[42] = target: HLA-A*11:01; experiment: IEDB peptide-MHC binding, purified MHC/competitive/fluorescence; filed as Kd, often an IC50 or EC50 that approximates it; ≥ and ≤ were set here for values at or beyond the usual limits of such assays; conditions: source organism: Homo sapiens
[43] = source organism: Yellow fever virus
[44] = source organism: Dengue virus 3 China/80-2/1980
[45] = source organism: Sudan ebolavirus
[46] = source organism: Zaire ebolavirus
[47] = source organism: Dengue virus 1 Singapore/S275/1990
[48] = source organism: Yersinia pestis Nepal516
[49] = source organism: Dengue virus 2 Thailand/NGS-C/1944
[50] = source organism: Influenza A virus H3N2
[51] = source organism: Vaccinia virus
[52] = source organism: Mycobacterium tuberculosis C
[53] = source organism: dengue virus type 1
[54] = source organism: Salmonella enterica subsp. enterica serovar Typhi

Sequence: AEMGANLCV
Kd [1, 43]: ≥ 5000 nM
Kd [2, 43]: ≥ 5000 nM
Kd [3, 43]: ≥ 5000 nM
Kd [4]: ≥ 20000 nM
Kd [5]: ≥ 20000 nM

Sequence: ALFSGVSWI
Kd [6, 44]: 0.51 nM
Kd [7, 44]: 483 nM
Kd ([8]; source organism: Dengue virus 3 Singapore/8120/1995): 1.58 nM

Sequence: AQHSTTLFK
IC50 [9, 45]: 30000 nM
IC50 [10, 45]: 994 nM

Sequence: ATTTSPQNH
IC50 [9, 46]: 37700 nM
IC50 [10, 46]: 1910 nM

Sequence: FLAHAIGTSI
Kd [6, 47]: 8.19 nM
Kd [7, 47]: 1.85 nM
Kd ([8]; source organism: Dengue virus 1 Brazil/97-11/1997): 46.7 nM

Sequence: FPVAMLSCL
Kd [11, 48]: 18.5 nM
Kd [12, 48]: ≤ 0.1 nM
Kd [13]: 186 nM
Kd [14, 48]: 15.7 nM

Sequence: ILMNFHQKK
IC50 [15]: 2470 nM
IC50 [9, 46]: 808 nM
IC50 [16]: 69400 nM
IC50 [10, 46]: 163 nM
IC50 [17]: 9840 nM

Sequence: IYLNEVNTF
Kd ([18]; source organism: Vibrio splendidus 12B01): ≤ 0.1 nM

Sequence: KLLTKPWDV
Kd ([7]; source organism: Dengue virus 4 Philippines/H241/1956): 379 nM

Sequence: KLSSTNQLR
IC50 [15]: ≥ 196000 nM
IC50 [9, 46]: 6870 nM
IC50 [10, 46]: 2460 nM

Sequence: LEKWNLGII
Kd [19]: 4370 nM
Kd [20]: ≥ 20000 nM
Kd [21]: ≥ 20000 nM
Kd [22]: 599 nM
Kd [23]: ≥ 20000 nM
Kd [24]: ≥ 20000 nM
Kd [25]: ≥ 20000 nM
Kd [26]: ≥ 20000 nM
Kd [27]: ≥ 20000 nM
Kd [28]: ≥ 20000 nM
Kd [29]: ≥ 20000 nM
Kd [30]: ≥ 20000 nM
Kd [31]: ≥ 20000 nM
Kd [32]: 1140 nM
Kd [33]: ≥ 20000 nM

Sequence: LLVLCVTQV
Kd [6, 49]: 64.9 nM
Kd [7, 49]: ≥ 5000 nM
Kd ([8]; source organism: Dengue virus 2 Peru/IQT2913/1996): 38.4 nM

Sequence: LYNKMEFEPF
Kd [18, 50]: 3.3 nM

Sequence: MVGIVHFNK
Kd [34]: 90 nM
Kd ([18]; source organism: Salmonella enterica subsp. enterica serovar Typhimurium str. LT2): 42.9 nM

Sequence: QLQQYAESR
IC50 [9, 46]: ≥ 240000 nM
IC50 [10, 46]: 18700 nM

Sequence: RARIKTRLFTI
Kd ([14]; source organism: Influenza A virus (A/X-31(H3N2))): 733 nM

Sequence: RMKWMMAM
Kd [14, 50]: 3250 nM

Sequence: RNKLSYRNK
Kd [35]: 63.9 nM
Kd [36]: 16400 nM
Kd [37]: ≥ 44000 nM
Kd [38]: ≥ 29500 nM
Kd [39]: ≥ 61500 nM
IC50 [9, 51]: 45100 nM
IC50 [10, 51]: ≥ 90400 nM

Sequence: SARRRHLVF
Kd [1, 52]: ≥ 5000 nM
Kd [2, 52]: ≥ 5000 nM
Kd [3, 52]: ≥ 5000 nM

Sequence: SEMGANFRA
Kd [40]: 48.9 nM
Kd [1, 53]: ≥ 5000 nM
Kd [2, 53]: ≥ 5000 nM
Kd [3, 53]: ≥ 5000 nM
Kd [41]: ≥ 37700 nM

Sequence: SFFYRYGF
Kd ([18]; source organism: Influenza A virus (A/Fort Monmouth/1/1947-mouse adapted(H1N1))): 35.7 nM

Sequence: SKSMRDQRK
IC50 ([9]; source organism: Variola virus): ≥ 246000 nM
IC50 ([10]; source organism: Variola virus): 21100 nM

Sequence: TLAVFLLLI
Kd [6, 47]: 2590 nM
Kd [7, 47]: 1840 nM

Sequence: WPDVFSVSV
Kd [11, 54]: 3.8 nM
Kd [12, 54]: 1.3 nM
Kd [14, 54]: 65.7 nM

Sequence: YILWENNIKL
Kd [6, 44]: 5.85 nM
Kd [7, 44]: 10.1 nM

Kd [42]: ≥ 20000 nM
Sequence: YLDDRNTFR

Sequence: YYLLFYPTI
Kd ([18]; source organism: Bacillus thuringiensis str. Al Hakam): ≤ 0.1 nM
